Laboratory results taken from article doi:10.1101/2025.06.14.659678, “NanoBondy reacting through NeissLock anhydride allows covalent immune cell decoration” (bioRxiv, 2025).

How the values were obtained:
[1] = target: T1, endogenous human CD45 at the cell-surface (Homo sapiens, UniProt P08575-4); assay: flow cytometry on cells; nanobodies incubated with YTS or NK92 cells (CD45+) or Expi293F cells (CD45-); detected with anti-VHH-Alexa Fluor 647; conditions: one partner purified
T1 construct: human CD45 as expressed on NK cell-lines and CD8+ T cells; also called endogenous CD45; source: endogenous, on YTS and NK92 cells and on primary human CD8+ T cells

[2] = target: T2, recombinant fragment of the d1 and d2 domains of human CD45 linked to an AviTag (Homo sapiens, biotin (site-specific, on the AviTag)); assay: ELISA; nanobodies coated on a plate, incubated with the indicated concentration of biotinylated CD45d1d2; colorimetric detection, absorbance at 450 nm; conditions: both partners purified
T2 construct: human CD45, extracellular domains d1 and d2; Glycosylated; Construct limits may be in the supplementary Methods; also called CD45d1d2; biotinylated human CD45 domains 1 and 2; source: Expi293F cells, purified
T2 chain: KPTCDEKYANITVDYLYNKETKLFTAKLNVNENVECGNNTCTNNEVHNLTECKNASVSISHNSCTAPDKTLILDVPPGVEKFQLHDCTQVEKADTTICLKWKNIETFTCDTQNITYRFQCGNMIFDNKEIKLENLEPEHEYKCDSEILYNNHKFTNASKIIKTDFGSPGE

T1 sequence (P08575 26-1306): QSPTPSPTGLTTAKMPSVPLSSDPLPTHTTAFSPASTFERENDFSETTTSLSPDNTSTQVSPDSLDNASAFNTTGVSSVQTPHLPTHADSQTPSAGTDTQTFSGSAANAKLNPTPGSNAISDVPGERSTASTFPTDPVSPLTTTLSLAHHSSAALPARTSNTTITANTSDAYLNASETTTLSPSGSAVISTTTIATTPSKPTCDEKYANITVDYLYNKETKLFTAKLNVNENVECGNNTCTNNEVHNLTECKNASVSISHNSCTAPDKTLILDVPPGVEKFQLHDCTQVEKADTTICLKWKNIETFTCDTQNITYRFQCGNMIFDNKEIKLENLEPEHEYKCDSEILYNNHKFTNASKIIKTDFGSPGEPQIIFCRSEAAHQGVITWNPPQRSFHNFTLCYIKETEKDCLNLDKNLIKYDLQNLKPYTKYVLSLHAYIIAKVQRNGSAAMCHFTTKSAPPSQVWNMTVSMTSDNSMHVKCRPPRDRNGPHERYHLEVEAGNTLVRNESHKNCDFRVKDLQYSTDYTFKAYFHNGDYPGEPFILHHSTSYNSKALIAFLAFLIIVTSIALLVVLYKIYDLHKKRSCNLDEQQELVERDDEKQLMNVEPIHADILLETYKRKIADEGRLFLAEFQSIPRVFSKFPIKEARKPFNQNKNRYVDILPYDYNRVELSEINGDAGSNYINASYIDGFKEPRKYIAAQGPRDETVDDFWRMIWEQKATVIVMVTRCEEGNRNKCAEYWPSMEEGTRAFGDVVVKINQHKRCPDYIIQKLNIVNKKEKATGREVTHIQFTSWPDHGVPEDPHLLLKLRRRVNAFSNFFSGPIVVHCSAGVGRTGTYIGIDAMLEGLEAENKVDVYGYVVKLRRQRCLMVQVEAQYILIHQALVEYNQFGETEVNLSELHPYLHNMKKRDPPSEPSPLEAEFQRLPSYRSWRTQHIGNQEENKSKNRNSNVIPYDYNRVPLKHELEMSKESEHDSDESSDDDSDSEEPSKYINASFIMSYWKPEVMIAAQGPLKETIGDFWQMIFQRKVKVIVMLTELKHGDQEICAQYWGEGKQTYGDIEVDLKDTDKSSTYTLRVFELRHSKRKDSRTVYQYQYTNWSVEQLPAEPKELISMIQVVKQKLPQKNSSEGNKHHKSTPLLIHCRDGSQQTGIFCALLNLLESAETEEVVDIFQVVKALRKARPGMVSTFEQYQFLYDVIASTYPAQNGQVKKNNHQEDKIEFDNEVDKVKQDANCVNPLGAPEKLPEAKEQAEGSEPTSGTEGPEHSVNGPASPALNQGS

binding result [1]: binds | binding result [2]: binds
B1: anti-CD45 nanobody 2H5 with C-terminal SpyTag003 (VHH)
VHH: QVQLQESGGGLVQTGGSLTLSCVASGGTFSSYAMGWFRQAPGKEREFVAAIGGSGDSTYYADSVKGRFTISRDNAKNSVYLQMNSLKPEDTAVYYCQADPTMFHKLYYGINPNEYDYWGQGTLVTVSS
notes: constructs are in the supplementary Methods; also called 2H5 nanobody
